Experimental findings from patent US6635440, “Method of isolation of RNA-binding compounds” (European Molecular Biology Laboratory) are described below.

One data set has as its target MS2 coat protein (Bacteriophage MS2, UniProt P03612 P03612:2-130). The experiment in a line: cell_activity; GFP repression in yeast, galactose vs glucose. To be noted: tags: expressed from YCpCP in S. cerevisiae RS453; chain copies: 2; hairpin. The text has this: (§1) YCpU1A, YCpIRP-1 and YCpCP were used for the galactose inducible expression of U1A, IRP-1 and MS2 coat protein, respectively. These plasmids contain a URA3 selection marker. The sequences and nomenclature of the GFP reporter plasmids are described in FIG. 3. Binding site insertions are represented by Capital letters. Differences between wild type and mutated binding sites are indicated by arrows.
(§2) This reduction specifically requires the presence of the wild type binding site and the cognate binding protein, and is not seen with either the mutant binding sites (FIG. 4c and f) or the non-cognate binding proteins (FIGS. 4a and d).

In another data set the target is U1A spliceosomal protein (UniProt P09012 P09012:2-282). Described as above. To be noted: tags: expressed from YCpU1A in S. cerevisiae RS453; hairpin.
Description: as §1, §2

Sequence of MS2 coat protein (P03612 2-130, one chain of several): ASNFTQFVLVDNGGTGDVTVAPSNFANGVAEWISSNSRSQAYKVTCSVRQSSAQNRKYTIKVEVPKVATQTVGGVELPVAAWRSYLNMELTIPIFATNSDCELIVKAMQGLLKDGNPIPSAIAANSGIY
Sequence of U1A spliceosomal protein (P09012 2-282, one chain of several): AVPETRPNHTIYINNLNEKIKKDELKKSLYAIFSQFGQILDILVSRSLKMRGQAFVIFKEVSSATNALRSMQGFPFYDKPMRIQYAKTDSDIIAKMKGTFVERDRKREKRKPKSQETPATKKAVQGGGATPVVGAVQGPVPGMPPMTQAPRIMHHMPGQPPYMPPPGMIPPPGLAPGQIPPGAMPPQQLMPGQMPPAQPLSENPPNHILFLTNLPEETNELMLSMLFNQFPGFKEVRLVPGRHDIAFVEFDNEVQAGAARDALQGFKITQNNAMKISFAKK

B1: MSC GFP 5'UTR (ssRNA)
RNA: AAUUAUCUACUUAAGGACCAUCAGGCCUUAAGAACACAAAACUCGAGAACAUAUUUUUAAUAUUAUG
In the data set with MS2 coat protein, B1 came in with an activity of roughly 70 % repression.

B2: MSA GFP 5'UTR (ssRNA)
RNA: AAUUAUCUACUUAAGGACCAUAAGGCCUUAAGAACACAAAACUCGAGAACAUAUUUUUAAUAUUAUG
In the data set with MS2 coat protein, B2 yielded an activity of roughly 50 % repression.

B3: U1Awt (U1 snRNA loop 2) GFP 5'UTR (ssRNA)
RNA: AAUUAUCUACUUAAGCGAUUGCACUCCCGCUUAAGAACACAAAACUCGAGAACAUAUUUUUAAUAUUAUG
Regarding B3, in the data set with U1A spliceosomal protein, the activity is roughly 40 % repression.
